In patent publication US9545446B2, “Agonists of guanylate cyclase and their uses” (priority 2013, dated 2017):
Bridges are numbered along the chain shown (N, C = ends). Where no end group is shown, it is not given here. [ ]: non-standard residue; d: D form.

Experiments:
healthy volunteers = experiment: Phase I multiple ascending dose study of SP-333; assay type: in vivo, human
Procedure: […] The maximum tolerated dose was 30 mg with 60 mg deemed an intolerable dose due to 2 instances of fecal incontinence or soiling in the 7 patients dosed with 60 mg SP-333.

intestinal GC-C receptor = intestinal GC-C receptor (Homo sapiens, UniProt P25092); experiment: in vitro and in vivo pharmacology studies (GC-C agonism); settings: several in vitro and in vivo pharmacology studies
healthy subjects = experiment: Phase I single ascending oral dose study of SP-333; assay type: in vivo, human
Procedure: Two phase 1 clinical studies with SP-333 have been completed to date and a Phase 2 trial in OIC is in progress. In the Phase I single ascending oral dose study, conducted in 64 healthy subjects, the following doses of SP-333 were tested: 0.1, 0.3, 1, 3, 10, 20, 30, and 60 mg. […] Diarrhea was the most common adverse event and was generally dose-related, with 1 mg being the threshold dose. The time to onset of diarrhea was variable but tended to decrease with increasing doses from 4 to 2 hours or less. The number of subjects with watery bowel movement rose from none (<3 mg) to 2 of 6 (3, 10 and 20 mg) to 4 of 6 (30 mg). The majority of these episodes was mild, occurred once, and was associated with urgency and in some cases mild cramping. There were no SAEs.

[1] = Phase 1 pharmacokinetic sampling (systemic absorption after oral dose); assay type: in vivo, human; settings: oral doses <10 mg
Procedure: Phase 1 pharmacokinetic sampling indicated no detectable (limit of quantitation=1 ng/mL) systemic absorption of SP-333 following oral doses <10 mg; it is therefore highly unlikely that a single oral dose of 6 mg SP-333 will result in any systemic exposure.

[2] = test system: patients scheduled to undergo colonoscopy; experiment: Phase 1 pilot clinical study: oral SP-333 as adjunct to SUPREP Bowel Prep Kit for cleansing of the colon prior to colonoscopy; assay type: in vivo, human
Procedure: This clinical study outlined above was designed to assess the effect of a single oral dose of 6 mg SP-333 when given concurrently with a standard pre-colonoscopy bowel prep—the SUPREP® Bowel Prep Kit (Braintree Laboratories, Braintree, Mass. 02185, USA). The investigator is a highly experienced gastroenterologist and oversaw all study activities and performed all colonoscopies per their usual routine.
• 1. Take Study Drug approximately 30 minutes before the start of the first bottle of the bowel prep kit. • 2. Take a 6 ounce bottle of study preparation and pour the entire contents into the mixing cup provided. Fill the cup with cool water to the fill line (16 ounces) and drink the entire cup of solution. • 3. Drink two (2) 16 ounce glasses of WATER over the next hour. Fill the mixing cup with water up to the fill line (16 ounces) and drink the entire glass. Morning of Colonoscopy
At least 3 hours prior to colonoscopy: • 1. Take the second 6 ounce bottle of study preparation and pour the entire contents into the mixing cup provided. Fill the cup with cool water to the fill line (16 ounces) and drink the entire cup of solution. • 2. Drink two (2) 16 ounce glasses of WATER over the next hour. Fill the mixing cup with water up to the fill line (16 ounces) and drink the entire glass. • Patient must complete the solution and additional water at least 2 hours before colonoscopy.
The primary endpoint of this study was bowel preparation treatment success as determined by the investigator (bowel preparation will be rated by the Investigator as “Excellent”, “Good”, “Fair” or “Poor”). A successful bowel preparation treatment is defined as bowel cleansing graded either “Excellent” or “Good” by the investigator (See Table 10).
Patients were consented for the study at the same time that informed consent was obtained for the colonoscopy procedure. Each successfully consented & recruited patient took a single dose of 6 mg SP-333 in the evening before the colonoscopy—approximately 30 minutes prior to ingestion of the first bottle of the SUPREP® Bowel Prep Kit (See Section entitled “Patient Instructions for SUPREP® Bowel Prep Kit” above).
Bowel preparation treatment success rate was described; formal hypothesis testing was not performed.
The volume of intra-procedural water required to improve visualization, the proximal insertion depth of the colonoscope and whether or not the right colon and cecum were completely visualized were recorded in the Colonoscopy Procedure Record.

[3] = 6 mg oral daily dose, healthy volunteers
[4] = 6 mg SP-333 added to standard colonoscopy cleansing preparation (SUPREP), 9 patients

intestinal GC-C receptor, sequence (P25092 24-1073): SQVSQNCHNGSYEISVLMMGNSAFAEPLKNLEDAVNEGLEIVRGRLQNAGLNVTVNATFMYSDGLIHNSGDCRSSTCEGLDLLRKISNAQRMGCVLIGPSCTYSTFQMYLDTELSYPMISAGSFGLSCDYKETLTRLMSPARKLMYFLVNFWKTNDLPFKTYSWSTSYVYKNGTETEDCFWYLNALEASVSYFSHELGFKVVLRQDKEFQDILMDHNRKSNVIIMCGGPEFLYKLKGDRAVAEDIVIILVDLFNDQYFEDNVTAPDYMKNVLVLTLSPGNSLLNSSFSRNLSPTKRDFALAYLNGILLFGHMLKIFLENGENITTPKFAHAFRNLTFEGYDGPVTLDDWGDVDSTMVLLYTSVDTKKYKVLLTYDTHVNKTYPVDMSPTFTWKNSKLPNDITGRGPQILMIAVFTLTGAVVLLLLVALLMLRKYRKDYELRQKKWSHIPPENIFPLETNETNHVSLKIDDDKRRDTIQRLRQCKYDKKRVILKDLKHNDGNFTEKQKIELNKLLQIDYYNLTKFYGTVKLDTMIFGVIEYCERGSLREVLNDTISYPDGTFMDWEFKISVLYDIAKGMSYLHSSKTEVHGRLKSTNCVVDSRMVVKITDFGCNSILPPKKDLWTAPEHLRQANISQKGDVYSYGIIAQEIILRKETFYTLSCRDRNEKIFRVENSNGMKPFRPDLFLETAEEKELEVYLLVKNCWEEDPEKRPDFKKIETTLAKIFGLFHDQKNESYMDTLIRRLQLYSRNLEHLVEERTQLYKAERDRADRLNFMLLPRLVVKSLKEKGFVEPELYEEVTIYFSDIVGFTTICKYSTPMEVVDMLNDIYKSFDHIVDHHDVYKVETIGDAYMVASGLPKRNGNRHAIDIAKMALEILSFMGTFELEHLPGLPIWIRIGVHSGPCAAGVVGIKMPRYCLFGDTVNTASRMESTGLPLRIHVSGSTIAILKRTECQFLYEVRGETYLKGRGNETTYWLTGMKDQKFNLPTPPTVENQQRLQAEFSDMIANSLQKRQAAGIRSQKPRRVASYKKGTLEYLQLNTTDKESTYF

dAsn^1-Asp^2-Glu^3-Cys^4-Glu^5-Leu^6-Cys^7-Val^8-Asn^9-Val^10-Ala^11-Cys^12-Thr^13-Gly^14-Cys^15-dLeu^16 ([dN]DECELCVNVACTGC[dL]; disulfide 4-12, 7-15) [SP-333]
additional AEs (healthy volunteers; [3]): No additional AEs of note
effect of dose in Phase 1 studies (basis of dose selection) (healthy volunteers; [3]): self-limited diarrhea (watery stools) with mild urgency
instances of fecal incontinence or soiling (healthy volunteers; 60 mg daily for 7 days, 7 patients dosed): 2
changes in hematology, clinical chemistry, or urinalysis parameters (healthy volunteers; any dose level): no clinically meaningful changes
changes in vital sign or ECG parameters (healthy volunteers; any dose level): no clinically meaningful changes
overall safety and tolerability (healthy volunteers; daily 0.3, 1, 3, 10, 30 mg for 14 days or 60 mg for 7 days, 89 subjects): generally safe and well-tolerated
maximum tolerated dose (healthy volunteers; daily doses for 14 days): 30 mg
intolerable dose (healthy volunteers; daily for 7 days, due to fecal incontinence or soiling): 60 mg
most commonly reported TEAEs (treatment-emergent adverse events) (healthy volunteers; mild or moderate intensity): gastrointestinal disorders (primarily diarrhea and defecation urgency)
subjects with a serious adverse event (SAE) (healthy volunteers; multiple ascending dose): no subject
subjects withdrawn from the study due to a TEAE (healthy volunteers; multiple ascending dose): no subject
agonism of the intestinal GC-C receptor (intestinal GC-C receptor): potent agonist
severity of the majority of watery bowel movement episodes (healthy subjects; occurred once, associated with urgency, in some cases mild cramping): mild
changes in clinical laboratory test results, ECG or vital signs (healthy subjects; single ascending oral dose): No clinically meaningful changes
serious adverse events (SAEs) (healthy subjects; single ascending oral dose): no SAEs
threshold dose for diarrhea (healthy subjects; single ascending oral dose): 1 mg
most common adverse event (healthy subjects; single ascending oral dose, generally dose-related): Diarrhea
number of subjects with watery bowel movement (healthy subjects; single oral dose 30 mg): 4 of 6
number of subjects with watery bowel movement (healthy subjects; single oral dose 3, 10 and 20 mg): 2 of 6
number of subjects with watery bowel movement (healthy subjects; single oral dose <3 mg): none
overall safety and tolerability (healthy subjects; single oral doses 0.1, 0.3, 1, 3, 10, 20, 30, 60 mg, 64 healthy subjects): safe and well tolerated
time to onset of diarrhea (healthy subjects; variable, tended to decrease with increasing doses, to 2 hours or less): 4 to 2 hours
systemic absorption (not detectable; limit of quantitation) [1]: < 1 ng/mL
colonoscopy procedure outcome [2, 4]: safe and successful procedure
visualization of the colon as observed by the gastroenterologist [2, 4]: better visualization of the entire colon
tolerability of combination with standard colonoscopy preparation ([2]; single oral 6 mg SP-333 evening before colonoscopy plus SUPREP Bowel Prep Kit, 9 patients): very well
ease of preparation as judged by subjects with previous colonoscopies ([2]; versus past colon cleansing preparation without SP-333): much easier
